Laboratory results: publication PMC10163345 (Journal of Cell Science, 2023)
Where no end group is shown, it is not given here.

Biological target: T1, constitutively active truncated His-tagged WT calcineurin (6×His–CNAαWT:CNB) (human | , UniProt Q08209 1-392; P63098 1-170)
T1 construct: human CNAα (PPP3CA), truncated at residue 392, WT; calcineurin B subunit (PPP3R1, amino acids 1–170), expressed in tandem with CNAα; p11 vector (PSI:Biology-Materials Repository); held on His-tag Dynabeads in the pull-down; also called CNWT; source: E. coli BL21 (DE3), purified (Ni-NTA agarose, dialysed)
Assay: pull-down; 1–2 μg 6×His-tagged CN bound to His-Tag Dynabeads; 7–10 μg purified GST-tagged peptide added, 2 h at 4°C; 50 mM Tris-HCl pH 7.5, 150 mM NaCl, 0.1% Tween 20, 1 mM β-mercaptoethanol, 15 mM imidazole, 0.5 mg/ml BSA; immunoblot
Settings: both partners purified

T1 sequence (Q08209 1-392, chain 1 of 2): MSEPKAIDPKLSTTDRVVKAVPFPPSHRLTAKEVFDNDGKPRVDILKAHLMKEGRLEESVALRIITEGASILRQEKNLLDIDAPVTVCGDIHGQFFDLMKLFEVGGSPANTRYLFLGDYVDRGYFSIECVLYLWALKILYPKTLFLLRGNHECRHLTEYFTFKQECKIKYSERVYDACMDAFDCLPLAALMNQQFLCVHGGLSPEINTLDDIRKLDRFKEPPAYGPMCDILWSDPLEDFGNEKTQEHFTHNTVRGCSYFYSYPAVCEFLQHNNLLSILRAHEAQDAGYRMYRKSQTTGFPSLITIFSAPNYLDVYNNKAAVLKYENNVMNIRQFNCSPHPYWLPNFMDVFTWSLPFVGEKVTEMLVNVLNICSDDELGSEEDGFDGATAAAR
T1 sequence (P63098 whole entry, chain 2 of 2, the tested form may be a part): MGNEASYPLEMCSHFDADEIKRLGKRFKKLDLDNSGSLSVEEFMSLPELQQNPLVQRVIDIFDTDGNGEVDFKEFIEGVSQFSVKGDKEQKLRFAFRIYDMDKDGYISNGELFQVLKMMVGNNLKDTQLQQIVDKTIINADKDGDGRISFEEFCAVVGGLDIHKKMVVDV

binding result: binds
B1: GST-tagged POC5 PxIxIT peptide (POC5 PDVRIS) (peptide)
chain: KGELVPDVRISTIHDI
modifications: also: GST-tagged
notes: 16mer of human POC5 with the PxIxIT motif PDVRIS (residues 35–40 of Q8NA72-3) in the centre; pGEX-4T-3 vector; also called WT POC5 peptide; source: E. coli BL21 (DE3), purified (Glutathione Sepharose 4B, dialysed)
